How the values were obtained:
[1] = target: SARS-CoV-2 spike receptor binding domain, wild type, recombinant (Severe acute respiratory syndrome …, UniProt P0DTC2); experiment: BLI
[2] = target: SARS-CoV-2 spike S1 subunit, wild type, recombinant (SARS-CoV-2, WT (QHD43416, Wuhan-Hu-1), UniProt P0DTC2); experiment: BLI

B1: BL6 mAb (antibody, V domains shown)
VH: EVQLVESGGGLVQPGRSLRLSCEVSGFTFEDYDMQWVRQAPGKGLEWVSGISWNGGIIGYGDSVKGRFTISRDNAKNSLYLQMNSLRGEDTALYSCAKALHSGDDSGQQAFDIWGQGTMVTVSS
VL: SYVLTQPPSVSVAPGQTAKITCGENNIGRRSVHWYQQKPGQAPVLVIFNDSDRPSGIPERFSGSMSGNTATLTISRVEAGDEADYYCQVWDSGSDHVVFGGGTELTVL
B1: binds [1]; binds [2].
